Laboratory results as given in patent publication EP4729546A1 (Jiangsu BioJeTay Biotechnology Co., Ltd., dated 2026).
Where two headings read alike, the source gives them in different places.

T1: huFXII-his (human, UniProt P00748 20-615)
T1 sequence (looked up): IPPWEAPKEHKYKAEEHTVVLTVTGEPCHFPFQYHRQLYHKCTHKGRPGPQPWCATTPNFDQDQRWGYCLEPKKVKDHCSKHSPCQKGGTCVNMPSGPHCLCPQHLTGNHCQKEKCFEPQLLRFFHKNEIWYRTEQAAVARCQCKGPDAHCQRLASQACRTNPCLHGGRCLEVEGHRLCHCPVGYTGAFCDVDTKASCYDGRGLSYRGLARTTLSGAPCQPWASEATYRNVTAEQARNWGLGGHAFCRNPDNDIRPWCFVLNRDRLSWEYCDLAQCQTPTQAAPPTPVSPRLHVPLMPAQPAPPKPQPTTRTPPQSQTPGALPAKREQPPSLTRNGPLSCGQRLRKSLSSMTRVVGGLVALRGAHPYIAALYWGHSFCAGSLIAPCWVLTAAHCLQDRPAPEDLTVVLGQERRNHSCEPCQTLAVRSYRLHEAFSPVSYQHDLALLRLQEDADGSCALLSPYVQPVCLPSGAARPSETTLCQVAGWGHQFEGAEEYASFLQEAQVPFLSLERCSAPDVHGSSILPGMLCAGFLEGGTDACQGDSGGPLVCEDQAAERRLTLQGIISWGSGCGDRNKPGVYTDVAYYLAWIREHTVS

T2: FXIIa (purchased from Enzyme Research Lab) (UniProt P00748 20-615, limits assumed)
T2 sequence (looked up): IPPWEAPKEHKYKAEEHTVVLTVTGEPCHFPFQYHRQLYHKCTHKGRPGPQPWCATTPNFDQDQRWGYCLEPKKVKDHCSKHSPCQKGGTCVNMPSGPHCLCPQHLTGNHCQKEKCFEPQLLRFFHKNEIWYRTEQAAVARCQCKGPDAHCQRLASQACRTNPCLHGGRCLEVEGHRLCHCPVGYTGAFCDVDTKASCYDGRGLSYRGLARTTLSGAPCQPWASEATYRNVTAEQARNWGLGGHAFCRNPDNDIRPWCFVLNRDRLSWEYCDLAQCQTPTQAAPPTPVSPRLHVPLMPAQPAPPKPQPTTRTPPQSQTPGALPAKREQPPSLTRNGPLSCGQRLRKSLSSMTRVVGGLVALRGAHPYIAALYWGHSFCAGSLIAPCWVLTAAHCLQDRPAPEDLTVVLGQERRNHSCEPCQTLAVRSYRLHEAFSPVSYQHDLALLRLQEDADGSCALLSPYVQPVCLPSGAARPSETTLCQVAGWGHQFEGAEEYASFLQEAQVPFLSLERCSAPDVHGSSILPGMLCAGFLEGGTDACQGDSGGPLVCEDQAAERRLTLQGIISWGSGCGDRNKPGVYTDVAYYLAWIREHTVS


How the values were obtained:
[1] = target: FXIIa (purchased from Enzyme Research Lab) (UniProt P00748); test: cell-based or functional assay
huFXII-his (human) [2] = target: huFXII-his (human) (UniProt P00748); test: cell-based or functional assay
huFXII-his (human) [3] = target: huFXII-his (human) (UniProt P00748); test: cell-based or functional assay; remark: listed apart in the source
huFXII-his (human) [4] = target: huFXII-his (human) (UniProt P00748); test: ELISA, huFXII-his coated at 1 µg/ml, HRP anti-human secondary, OD450
huFXII-his = target: T1, huFXII-his; test: cell-based or functional assay
[5] = target: T2, FXIIa (purchased from Enzyme Research …); test: cell-based or functional assay

| IC50 of inhibition of cleavage of chemical substrate S2302 by FXIIa (OD405) (huFXII-his (human) [3]) | IC50 of inhibition of cleavage of chemical substrate S2302 by FXIIa (OD405) (huFXII-his) | Molecule | other results |
| --- | --- | --- | --- |
| 0.0258 µg/mL | – | CSL312 (antibody) | IC50 of inhibition of the cleavage of PK proenzyme (prekallikrein) by FXIIa, read with pKa substrate CS-3102 (OD405) [1]: 0.11 µM; IC50 of inhibition of cleavage of chemical substrate S2302 by FXIIa (OD405) (huFXII-his (human) [2]): 0.0232 µg/mL; EC50 (huFXII-his (human) [4]): 0.421 µg/mL |
| – | – | FX-Y39 (antibody, V domains shown) VH: QVQLQQSGGGLVQTGGSLRLACAGTGFTFSDYSMNWVRQAPGKGLEWVSYISNSRSRSSKYYADSVKGRFTISRDNAKNSLYLQMNSLRAEDTAVYYCARIGYCKNGVCGGAYDYWGQGTLVTVSS VL: EIVLTQSPSAMSASVGDRVTITCRASQAIRNNLAWFQQKPGKVPKRLMNTASSLESGVPSRFSGSGSGTEFTLTITSLQPEDFASYYCLQYHDSPWTFGQGTKLEIK | IC50 of inhibition of cleavage of chemical substrate S2302 by FXIIa (OD405) (huFXII-his (human) [2]): 0.0398 µg/mL |
| 0.0213 µg/mL | – | FX-Y17 (antibody, V domains shown) VH: EVQLLESGGGLVQPGGSLRLSCAGSGFSFGSQTMSWVRQAPGKGLEWVSSISVISGRTYYADSVKGRFTISRDNSKNTLYLQMNSLRAEDTAVYYCTKSHAFDVWGQGTMVTVSS VL: EIVLTQSPATLSVSPGERATLSCRASQSVYSNLAWYQQKPGQAPRLLIYGASTRATGIPARFSGSGSGTEFTLTISSLQSEDFAVYYCQQYNKWPLSFGGGTKVEIK | IC50 of inhibition of cleavage of chemical substrate S2302 by FXIIa (OD405) (huFXII-his (human) [2]): 0.0251 µg/mL |
| – | 0.0282 µg/mL | FX-Y17-Y34 (antibody, V domains shown) VH: EVQLLESGGGLVQPGGSLRLSCAGSGFSFGSQTMSWVRQAPGKGLEWVSSISVISRRTYYADSVKGRFTISRDNSKNTLYLQMNSLRAEDTAVYYCTRSHAFDVWGQGTMVTVSS VL: EIVLTQSPATLSVSPGERATLSCRASQSVWSNLAWYQQKPGQAPRLLIYGASTRATGIPARFSGSGSGTEFTLTISSLQSEDFAVYYCQQYHKWPLSFGGGTKVEIK | IC50 of inhibition of the cleavage of PK proenzyme (prekallikrein) by FXIIa, read with pKa substrate CS-3102 (OD405) [5]: 0.0271 µM |
| 0.0116 µg/mL | – | FX-Y17-Y4 (antibody, V domains shown) VH: EVQLLESGGGLVQPGGSLRLSCAGSGFSFGSQTMSWVRQAPGKGLEWVSSSHVISGRTYYADSVKGRFTISRDNSKNTLYLQMNSLRAEDTAVYYCTKSHAFDVWGQGTMVTVSS VL: EIVLTQSPATLSVSPGERATLSCRASQSVYYNLAWYQQKPGQAPRLLIYGASTRATGIPARFSGSGSGTEFTLTISSLQSEDFAVYYCQQYHKWPLSFGGGTKVEIK | IC50 of inhibition of the cleavage of PK proenzyme (prekallikrein) by FXIIa, read with pKa substrate CS-3102 (OD405) [5]: 0.0306 µM; EC50 (huFXII-his (human) [4]): 0.205 µg/mL |
| – | 0.0163 µg/mL | FX-Y17-Y26 (antibody, V domains shown) VH: EVQLLESGGGLVQPGGSLRLSCAGSGFSFGSQTMSWVRQAPGKGLEWVSSISVISGRTYYADSVKGRFTISRDNSKNTLYLQMNSLRAEDTAVYYCTKSHAFDVWGQGTMVTVSS VL: EIVLTQSPATLSVSPGERATLSCRASQSVYSALAWYQQKPGQAPRLLIYGASTRATGIPARFSGSGSGTEFTLTISSLQSEDFAVYYCQQYHKWPLSFGGGTKVEIK | – |
| 0.0221 µg/mL | – | FX-Y17-Y45 (antibody, V domains shown) VH: EVQLLESGGGLVQPGGSLRLSCAGSGFSFGSQTMSWVRQAPGKGLEWVSSISHISGRTYYADSVKGRFTISRDNSKNTLYLQMNSLRAEDTAVYYCAKSHAFDVWGQGTMVTVSS VL: EIVLTQSPATLSVSPGERATLSCRASQSVYSALAWYQQKPGQAPRLLIYGASTRATGIPARFSGSGSGTEFTLTISSLQSEDFAVYYCQQNNRWPLSFGGGTKVEIK | IC50 of inhibition of the cleavage of PK proenzyme (prekallikrein) by FXIIa, read with pKa substrate CS-3102 (OD405) [5]: 0.0235 µM; EC50 (huFXII-his (human) [4]): 0.358 µg/mL |
| – | 0.0141 µg/mL | FX-Y17-Y48 (antibody, V domains shown) VH: EVQLLESGGGLVQPGGSLRLSCAGSGFSFGSQTMSWVRQAPGKGLEWVSSISVISGRAYYADSVKGRFTISRDNSKNTLYLQMNSLRAEDTAVYYCTRSHAFDVWGQGTMVTVSS VL: EIVLTQSPATLSVSPGERATLSCRASQSVYSALAWYQQKPGQAPRLLIYGASTRATGIPARFSGSGSGTEFTLTISSLQSEDFAVYYCQQYHKWPLSFGGGTKVEIK | – |
| – | 0.0166 µg/mL | FX-Y17-Y24 (antibody, V domains shown) VH: EVQLLESGGGLVQPGGSLRLSCAGSGFSFGSQTMSWVRQAPGKGLEWVSSISYISGRTYYADSVKGRFTISRDNSKNTLYLQMNSLRAEDTAVYYCTKGHAFDVWGQGTMVTVSS VL: EIVLTQSPATLSVSPGERATLSCRASQSVYSALAWYQQKPGQAPRLLIYGASTRATGIPARFSGSGSGTEFTLTISSLQSEDFAVYYCQQYHKWPLSFGGGTKVEIK | – |
| – | 0.0225 µg/mL | FX-Y17-Y50 (antibody, V domains shown) VH: EVQLLESGGGLVQPGGSLRLSCAGSGFSFGSQTMSWVRQAPGKGLEWVSSISVISGRRYYADSVKGRFTISRDNSKNTLYLQMNSLRAEDTAVYYCTKSHAFDVWGQGTMVTVSS VL: EIVLTQSPATLSVSPGERATLSCRASQSVYSALAWYQQKPGQAPRLLIYGASTRATGIPARFSGSGSGTEFTLTISSLQSEDFAVYYCQQYHKWPLSFGGGTKVEIK | – |
| – | 0.0179 µg/mL | FX-Y17-Y47 (antibody, V domains shown) VH: EVQLLESGGGLVQPGGSLRLSCAGSGFSFGSQTMSWVRQAPGKGLEWVSSISVISGRDYYADSVKGRFTISRDNSKNTLYLQMNSLRAEDTAVYYCTRSHAFDVWGQGTMVTVSS VL: EIVLTQSPATLSVSPGERATLSCRASQSVYSALAWYQQKPGQAPRLLIYGASTRATGIPARFSGSGSGTEFTLTISSLQSEDFAVYYCQQYHKWPLSFGGGTKVEIK | – |
| – | 0.0155 µg/mL | FX-Y17-Y51 (antibody, V domains shown) VH: EVQLLESGGGLVQPGGSLRLSCAGSGFSFGSQTMSWVRQAPGKGLEWVSSISVISGRNYYADSVKGRFTISRDNSKNTLYLQMNSLRAEDTAVYYCTRSHAFDVWGQGTMVTVSS VL: EIVLTQSPATLSVSPGERATLSCRASQSVYSALAWYQQKPGQAPRLLIYGASTRATGIPARFSGSGSGTEFTLTISSLQSEDFAVYYCQQYHKWPLSFGGGTKVEIK | – |
